Experimental data reported in PMC4385751.

Key:
[1] = target: Commercial CD62L from R&D systems, Inc. (human) (UniProt P14151); experiment: SPR
[2] = target: Recombinant soluble human CD62L N104E mutant (residues 1-194, C-terminal six-histidine tag) (human) (UniProt P14151); experiment: SPR

Kd [1]: 27 µM
Kd [2]: 44 µM
Substance: type III porcine submaxillary mucin (PSM-III) (natural protein)
